Experimental findings from the Human Domainome abundance scans (Beltran et al. 2025) are described below.

± gives the uncertainty stated by the source.

B1: Ventral anterior homeobox 1, residues 102 to 157; numbered along this chain, Q5SQQ9 (parent)
chain: RTRTSFTAEQLYRLEMEFQRCQYVVGRERTELARQLNLSETQVKVWFQNRRTKQKK
B2: Glucocorticoid receptor, residues 419 to 494; numbered along this chain, P04150 (parent)
chain: KLCLVCSDEASGCHYGVLTCGSCKVFFKRAVEGQHNYLCAGRNDCIIDKIRRKNCPACRYRKCLQAGMNLEARKTK

The first data set covers variants of B1. Put plainly: abundance fitness (aPCA) (normalised: wild type 0, dead -1); higher = more abundant; growth selection in yeast, the domain comes from the species named. As to conditions: Homo sapiens.
As to S5W, the abundance fitness is -0.189 ± 0.14.

With S5Q, the abundance fitness was found to be 0.028 ± 0.17.

For S5M, the abundance fitness was 0.08 ± 0.15.

On to S5G, for which the abundance fitness is -0.002 ± 0.092.

Turning to S5E, the abundance fitness worked out at 0.326 ± 0.14.

Regarding S5L, the abundance fitness is -0.179 ± 0.15.

Take S5K: the abundance fitness is -0.747 ± 0.2.

In the case of S5I, the abundance fitness was -0.177 ± 0.19.

On to S5R, for which the abundance fitness is -0.597 ± 0.12.

Consider S5H, for which the abundance fitness is -0.224 ± 0.28.

Turning to S5Y, the abundance fitness was -0.013 ± 0.22.

For the variant S5D, the abundance fitness is 0.262 ± 0.14.

Consider S5C, for which the abundance fitness was -0.225 ± 0.16.

As to F6E, the abundance fitness was -0.559 ± 0.44.

Consider F6A, for which the abundance fitness is -0.616 ± 0.22.

For F6P, the abundance fitness was -0.337 ± 0.2.

In the case of F6D, the abundance fitness is -0.445 ± 0.31.

For F6L, the abundance fitness was -0.029 ± 0.1.

In the case of F6G, the abundance fitness is -0.427 ± 0.1.

As for F6N, the abundance fitness is -0.43 ± 0.33.

On to F6I, for which the abundance fitness was -0.089 ± 0.27.

In the case of F6H, the abundance fitness is -0.283 ± 0.25.

With F6M, the abundance fitness came out at 0.049 ± 0.22.

For the variant F6K, the abundance fitness was -0.42 ± 0.33.

Consider F6C, for which the abundance fitness was -0.536 ± 0.26.

For T2H, the abundance fitness is -0.38 ± 0.24.

For T2Y, the abundance fitness is -0.335 ± 0.26.

Regarding T2W, the abundance fitness was -0.566 ± 0.24.

As for T2N, the abundance fitness was 0.271 ± 0.35.

For T2S, the abundance fitness was -0.074 ± 0.16.

Consider T2K, for which the abundance fitness is -0.202 ± 0.19.

For T2G, the abundance fitness turned out to be 0.013 ± 0.14.

For T2R, the abundance fitness is -0.166 ± 0.13.

T2P: the abundance fitness was -0.098 ± 0.24.

T2E: the abundance fitness was -0.012 ± 0.3.

Regarding T2Q, the abundance fitness worked out at 0.135 ± 0.28.

In the case of T2L, the abundance fitness was -0.406 ± 0.22.

T2M: the abundance fitness was -0.128 ± 0.26.

Turning to T2F, the abundance fitness is -0.3 ± 0.24.

As for T2C, the abundance fitness was -1.01 ± 0.4.

As to T2D, the abundance fitness is -0.034 ± 0.19.

As for R3I, the abundance fitness was determined as 0.251 ± 0.092.

With R3P, the abundance fitness worked out at 0.164 ± 0.091.

With R3S, the abundance fitness was 0.266 ± 0.084.

As to R3D, the abundance fitness was found to be 0.326 ± 0.12.

On to R3M, for which the abundance fitness is 0.279 ± 0.16.

In the case of R3W, the abundance fitness turned out to be 0.054 ± 0.16.

On to R3V, for which the abundance fitness amounted to 0.096 ± 0.094.

With R3K, the abundance fitness came to 0.168 ± 0.13.

On to R3L, for which the abundance fitness was 0.156 ± 0.084.

As to R3Q, the abundance fitness was 0.084 ± 0.14.

As for R3H, the abundance fitness is 0.229 ± 0.098.

For R3Y, the abundance fitness came to 0.071 ± 0.1.

Turning to R3N, the abundance fitness was determined as 0.268 ± 0.098.

Turning to R3G, the abundance fitness came out at 0.223 ± 0.095.

As for R3A, the abundance fitness stood at 0.002 ± 0.11.

On to R3C, for which the abundance fitness came out at 0.211 ± 0.11.

For the variant R3F, the abundance fitness is 0.209 ± 0.098.

In the case of R1C, the abundance fitness is 0.058 ± 0.18.

R1G: the abundance fitness is -0.002 ± 0.19.

In the case of R1E, the abundance fitness is -0.025 ± 0.46.

Consider R1S, for which the abundance fitness was -0.042 ± 0.2.

On to R1T, for which the abundance fitness was -0.465 ± 0.37.

Consider R1I, for which the abundance fitness was determined as 0.024 ± 0.34.

Regarding R1M, the abundance fitness is 0.083 ± 0.39.

In the case of T4S, the abundance fitness was -0.058 ± 0.13.

Turning to T4H, the abundance fitness is -0.49 ± 0.28.

For T4R, the abundance fitness is -0.35 ± 0.11.

In the case of T4M, the abundance fitness was 0.107 ± 0.23.

For the variant T4F, the abundance fitness is -0.347 ± 0.45.

For the variant T4Q, the abundance fitness was -0.11 ± 0.2.

Consider T4C, for which the abundance fitness is -0.165 ± 0.18.

In the case of T4P, the abundance fitness was -0.074 ± 0.24.

For the variant T4D, the abundance fitness was -0.14 ± 0.2.

On to T4I, for which the abundance fitness is -0.193 ± 0.23.

Turning to T4E, the abundance fitness was 0.169 ± 0.15.

For T4L, the abundance fitness came out at 0.205 ± 0.13.

T4N: the abundance fitness came out at 0.033 ± 0.23.

For T4G, the abundance fitness is -0.269 ± 0.099.

As for T4W, the abundance fitness is -0.095 ± 0.14.

Turning to T4V, the abundance fitness was -0.092 ± 0.12.

For T4A, the abundance fitness was -0.188 ± 0.17.

With T4K, the abundance fitness is -0.079 ± 0.19.

In the next data set the parent is B2. The description is as above. As to conditions: Homo sapiens.
Take KLCLVCSDEASGCHYGVLTCGSCKVFFKRAVEGQHNYLCAGRNDCIIDKIRRKGCPACRYRKCLQAGMNLEARKTK [N54G]: the abundance fitness is -0.104 ± 0.036.

Regarding KLCLVCSDEASGCHYGVLTCGSCKGFFKRAVEGQHNYLCAGRNDCIIDKIRRKNCPACRYRKCLQAGMNLEARKTK [V25G], the abundance fitness amounted to 0.008 ± 0.054.

Take KLCLVCSDEASGCHYGVLTCGSCKVFQKRAVEGQHNYLCAGRNDCIIDKIRRKNCPACRYRKCLQAGMNLEARKTK [F27Q]: the abundance fitness is -0.896 ± 0.14.

KLCLVCSDEASGCHYGVLTCGSCKVFFKRAVEGQHNYLCAGRNDCIIDKIRRKNCPACAYRKCLQAGMNLEARKTK [R59A]: the abundance fitness was -0.702 ± 0.067.

Regarding KLCLVCSDEASGCHYGVLTCGSCKVFFKRAVEGQHNYLCAGRNDCIIDKIRRKNCPACRYRKMLQAGMNLEARKTK [C63M], the abundance fitness was -0.075 ± 0.049.

KLCLVCSDEASGCHYCVLTCGSCKVFFKRAVEGQHNYLCAGRNDCIIDKIRRKNCPACRYRKCLQAGMNLEARKTK [G16C]: the abundance fitness is -0.483 ± 0.12.

Consider KLCLVCSDEASGCHYGVLTCGSCKVFFKRAVEGQHNYLCPGRNDCIIDKIRRKNCPACRYRKCLQAGMNLEARKTK [A40P], for which the abundance fitness was -0.066 ± 0.053.

Consider KLCLVCSDEASGCHYGVLTCGSCKVFFKRAVEGQINYLCAGRNDCIIDKIRRKNCPACRYRKCLQAGMNLEARKTK [H35I], for which the abundance fitness is -0.071 ± 0.072.

Consider KLCLVCSDEASGCHYGVLTCGSCKVFFYRAVEGQHNYLCAGRNDCIIDKIRRKNCPACRYRKCLQAGMNLEARKTK [K28Y], for which the abundance fitness is 0.001 ± 0.069.

On to KLCLVCSDEASGCHYGVLTCGSCKVFFKRAVEGQHNYLCAGRNDCIIDKIRRKNCPACRYRKCLQAGQNLEARKTK [M68Q], for which the abundance fitness is -0.999 ± 0.18.

Regarding KLCLVCSDEASGCHYGVLTCGSCKVFFKRAVEGQHNYLCAGRNWCIIDKIRRKNCPACRYRKCLQAGMNLEARKTK [D44W], the abundance fitness is -0.423 ± 0.09.

On to KLCLVCSDEASGCHYGVLTCGSCKVFFKRAVEGQHNYLCAGRNDCIIDKIRRKNCPACRYRKCLQAGMSLEARKTK [N69S], for which the abundance fitness stood at 0.039 ± 0.044.

Consider KLCLVCSDEASGCHYGVLTCGSCKVFFKRAVEGQHNYLCAGRNDCIIDKIRRKNCPACRYRKCLQAGMKLEARKTK [N69K], for which the abundance fitness was found to be 0.001 ± 0.048.

Regarding KLCLVCSDEASGCHYGVLTCGSCKVFFKRAVEGQHNYLCAGRNDCIIDKIRRKNCPACRYRCCLQAGMNLEARKTK [K62C], the abundance fitness was 0.007 ± 0.062.

For KLCLVCSDEASGCHYGVLTCGSCKVFFKRAVEGQHNYLCAGRNDHIIDKIRRKNCPACRYRKCLQAGMNLEARKTK [C45H], the abundance fitness was -0.168 ± 0.09.

Take KLCLVCSDEASGCHYGVLTCGSCKVFFKRAVEGQHNYLCAGRNDCIIDKMRRKNCPACRYRKCLQAGMNLEARKTK [I50M]: the abundance fitness turned out to be 0.055 ± 0.048.

In the case of KLCLVCSDEASGCHYGVLTCGSCKVFFKRAVEGQHNYLCAGRNDCIIDKINRKNCPACRYRKCLQAGMNLEARKTK [R51N], the abundance fitness was -0.031 ± 0.13.

For KLCLVCSDEASGCHYGVLQCGSCKVFFKRAVEGQHNYLCAGRNDCIIDKIRRKNCPACRYRKCLQAGMNLEARKTK [T19Q], the abundance fitness was -0.559 ± 0.067.
